B1: GST-GABARAP (natural protein, human, UniProt O95166 1-117, looked up)
chain: MKFVYKEEHPFEKRRSEGEKIRKKYPDRVPVIVEKAPKARIGDLDKKKYLVPSDLTVGQFYFLIRKRIHLRAEDALFFFVNNVIPPTSATMGQLYQEHHEEDFFLYIAYSDESVYGL
notes: also called γ-amino-butyric acid receptor-associated protein
B2: purified recombinant T7-tagged vIRF-1 (natural protein)
chain: MDPGQRPNPFGAPGAIPKKPCLSQGSPGTSGSGAPCDEPSRSESPGEGPSGTGGSAAAGDITRQAVVAAITEWSRTRQLRISTGASEGKASIKDWIVCQVNSGKFPGVEWEDEERTRFRIPVTPLADPCFEWRRDGELGVVYIRERGNMPVDASFKGTRGRRRMLAALRRTRGLQEIGKGISQDGHHFLVFRVRKPEEEQCVECGVVAGAVHDFNNMARLLQEGFFSPGQCLPGEIVTPVPSCTTAEGQEAVIDWGRLFIRMYYNGEQVHELLTTSQSGCRISSALRRDPAVHYCAVGSPGQVWLPNVPNLACEIAKRELCDTLDACAKGILLTSSCNGIFCVCYHNGPVHFIGNTVPPDSGPLLLPQGKPTRIFNPNTFLVGLANSPLPAPSHVTCPLVKLWLGKPVAVGKLEPHAPSPRDFAARCSNFSDACVVLEIMPKPLWDAMQ
notes: source: purified recombinant protein; not shown: T7, C-terminal, kept
B3: GST-fused full-length (FL) vIRF-1 (natural protein)
chain: B2 chain

Some targets named below: GST-LC3B D19E (human, UniProt Q9GZQ8 1-120, D19E); GST-LC3B L22K (human, UniProt Q9GZQ8 1-120, L22K); GST-LC3B E41K (human, UniProt Q9GZQ8 1-120, E41K).
Common to all, as to experiment: pull-down
Holding throughout (conditions): both partners purified

For experiment [1], the target named is B2.
In another experiment the target is T1, GST-GABARAPL1 (human, UniProt Q9H0R8 1-117).
T1 construct: also called GABARAP-like 1; GL1
T1 sequence (Q9H0R8 whole entry): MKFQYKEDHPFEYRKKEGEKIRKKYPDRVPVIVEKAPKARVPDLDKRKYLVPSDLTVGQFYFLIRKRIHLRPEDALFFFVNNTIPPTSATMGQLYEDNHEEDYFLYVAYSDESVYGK

The target of experiment [2] is T2, purified recombinant T7-tagged GABARAPL1 (human, UniProt Q9H0R8 1-117).
T2 construct: also called T7-GABARAPL1

On to B1, for which the binding result in experiment [1] is listed as “binds”.

Take B2: the binding result in the experiment with GST-LC3B D19E, with GST-LC3B L22K, with GST-LC3B E41K and with GST-GABARAPL1 was “binds” in each case.

Regarding B3, the binding result in experiment [2] is “binds”.

Source of the values: article PMC10374065 (PLOS Pathogens, 2023).
